Results on 2 substances are retold here after US20240109967A1.

Values joined by “and” are separate entries in the source; they are usually repeats but may differ in a detail not shown here. Equal entries are not always repeated. Where two headings read alike, the source gives them in different places.

In assay [1] the target is feline CTLA-4 in feline CD5+ leucocytes (feline) (UniProt Q9XTA1). Briefly: flow cytometry, feline PBMC, Surface labeling, anti-HA secondary alone, gated Lymphocytes>Single cells>Live>CD5+. In general terms: A flow cytometer gives signals particle by particle.
The target in assay [2] is full length canine CTLA-4 on cells (KTδ32.cCTLA-4 cells; canine T cells and regulatory T cells) (canine) (UniProt Q9XSI1).
Assay [3] shares this target. The source holds these as a separate data set.
For assay [4] the target is unchanged. The source holds these as a separate data set.
In assay [5] the target is feline CTLA-4 in feline CD5+ leucocytes (feline) (UniProt Q9XTA1).
Assay [6] shares this target. The source holds these as a separate data set.

Regarding 2nd only (anti-HA secondary alone), the % of gated cells in the CTLA4 gate in assay [1] came to 3.8%.
Take irrelevant MERS mAb (antibody): the % of cells in the CTLA4(HA.APC) gate in assay [2] was 4.23% and 1.9%. Moreover, in assay [3], the % of gated cells in Q5 (CTLA4+ CD4-) is 0.014% and 4.28% and 0.42%. In assay [3], the % of gated cells in Q6 (CTLA4+ CD4+) was 0.72% and 5.32% and 0.68%. The % of gated cells in the CTLA4 gate in assay [4] is 8.33% and 0%; in assay [5], 0.5%; in assay [6], 0.13%.
